From patent US20050020492A1 (MERCK, published 2005)
Where two headings read alike, the source gives them in different places. Positions of bridges follow the written chain, without caps; N, C: chain ends. Non-standard residues stand in square brackets, D forms with d. Cha = N[C@@H](CC1CCCCC1)C(=O)O

Assays:
human MCH-1R [1] = molecular target: T1, human MCH-1R (human, UniProt Q99705 1-353); test: cell-based or functional assay
human MCH-1R [2] = molecular target: T1, human MCH-1R; test: cell-based or functional assay; remark: listed apart in the source
human MCH-2R [3] = molecular target: T2, human MCH-2R (human, UniProt Q969V1 1-340); test: cell-based or functional assay
human MCH-1R [4] = molecular target: T1, human MCH-1R; test: ratio of the two SPA IC50s
human MCH-2R [5] = molecular target: T2, human MCH-2R; test: SPA, displacement of [125I]-[Phe13,Tyr19]-hMCH, MCH-2R membranes
Description: (§1) After equilibrating at room temperature for 3 hours, the plates were read in a TopCount (Packard, Meriden, Conn.). IC₅₀ calculations were performed using Prism 3.0 (GraphPad. Software, San Diego, Calif.). The IC₅₀ values were measured in three different experiments.

human MCH-1R [6] = molecular target: T1, human MCH-1R; test: SPA, displacement of [125I]-[Phe13,Tyr19]-hMCH, CHO/MCH-1R membranes
Description: as §1

human MCH-2R [7] = molecular target: T2, human MCH-2R; test: cell-based or functional assay; remark: listed apart in the source
human MCH-2R [8] = molecular target: T2, human MCH-2R; test: SPA, displacement of [125I]-[Phe13,Tyr19]-hMCH, MCH-2R membranes; remark: listed apart in the source
Description: as §1

T2 sequence (Q969V1 whole entry): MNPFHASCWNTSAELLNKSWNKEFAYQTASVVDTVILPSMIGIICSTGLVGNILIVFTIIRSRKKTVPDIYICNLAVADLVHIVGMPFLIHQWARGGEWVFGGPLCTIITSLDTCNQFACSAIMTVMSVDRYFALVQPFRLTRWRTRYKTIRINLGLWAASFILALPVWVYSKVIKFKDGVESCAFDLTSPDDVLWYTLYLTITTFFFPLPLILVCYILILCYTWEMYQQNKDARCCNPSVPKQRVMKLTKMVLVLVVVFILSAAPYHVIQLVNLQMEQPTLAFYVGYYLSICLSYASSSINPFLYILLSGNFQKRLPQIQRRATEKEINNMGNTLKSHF
T1 sequence (Q99705 whole entry): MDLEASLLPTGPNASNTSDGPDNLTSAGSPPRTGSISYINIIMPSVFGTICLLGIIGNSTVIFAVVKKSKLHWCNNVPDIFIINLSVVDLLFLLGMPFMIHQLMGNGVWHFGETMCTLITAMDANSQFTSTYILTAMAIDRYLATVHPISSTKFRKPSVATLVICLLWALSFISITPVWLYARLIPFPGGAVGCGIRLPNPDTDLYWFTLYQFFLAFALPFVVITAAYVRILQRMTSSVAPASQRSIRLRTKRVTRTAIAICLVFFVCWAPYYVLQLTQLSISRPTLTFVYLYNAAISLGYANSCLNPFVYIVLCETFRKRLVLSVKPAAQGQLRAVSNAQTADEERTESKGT

XCMLGRVYRPC (N-terminal acetyl; D-Arg at position 6; C-terminal amide; disulfide cycle) [SEQ. ID. NO. 5 (Ac-D-Arg^6 analog of Ac-hMCH(6-16)-NH2)]
Activation %, aequorin bioluminescence (human MCH-1R [1]): 97%

B1: SEQ. ID. NO. 21 (Nal(2′)^10 analog of Ac-hMCH(6-16)-NH2) (peptide)
peptide: RCMLXRVYRPC
HELM: PEPTIDE1{[ac].R.C.M.L.[O=C([C@H](Cc1ccc2ccccc2c1)N[*:1])[*:2]].R.V.Y.R.P.C.[am]}$PEPTIDE1,PEPTIDE1,3:R3-12:R3$$$V2.0
SMILES: CSCC[C@@H]1NC(=O)[C@@H](NC(=O)[C@H](CCCNC(=N)N)NC(C)=O)CSSC[C@@H](C(N)=O)NC(=O)[C@@H]2CCCN2C(=O)[C@H](CCCNC(=N)N)NC(=O)[C@H](Cc2ccc(O)cc2)NC(=O)[C@H](C(C)C)NC(=O)[C@H](CCCNC(=N)N)NC(=O)[C@H](Cc2ccc3ccccc3c2)NC(=O)[C@H](CC(C)C)NC1=O
Activation %, aequorin bioluminescence (human MCH-1R [2]): 7%
EC50, aequorin bioluminescence (human MCH-1R [2]): > 10000 nM
Activation %, aequorin bioluminescence (human MCH-2R [3]): 105%
EC50, aequorin bioluminescence (human MCH-2R [3]): 81 nM
Selectivity 2/1 (MCH-2R/MCH-1R IC50 ratio) (human MCH-1R [4]): 14 ratio
IC50 (human MCH-2R [5]): 18 nM
IC50 (human MCH-1R [6]): 1.3 nM

B2: SEQ. ID. NO. 3 (Gva^6 analog of Ac-hMCH(6-16)-NH2) (peptide)
peptide: XCMLGRVYRPC
modifications: position 6 is Gva, des-amino-arginine (5-guanidinovaleric acid), no acetyl; C-terminal amide; disulfide cycle
Activation %, aequorin bioluminescence (human MCH-1R [1]): 49%
Activation %, aequorin bioluminescence (human MCH-2R [7]): 102%

Ac-RCML[Cha]RVYRPC-NH2 (disulfide 2-11) [SEQ. ID. NO. 19 (Cha^10 analog of Ac-hMCH(6-16)-NH2)]
Activation %, aequorin bioluminescence (human MCH-1R [2]): 76%
EC50, aequorin bioluminescence (human MCH-1R [2]): 1200 nM
Selectivity 2/1 (MCH-2R/MCH-1R EC50 activity ratio) (human MCH-1R [2]): 0.25 ratio
Activation %, aequorin bioluminescence (human MCH-2R [3]): 74%
EC50, aequorin bioluminescence (human MCH-2R [3]): 300 nM
Selectivity 2/1 (MCH-2R/MCH-1R IC50 ratio) (human MCH-1R [4]): 11 ratio
IC50 (human MCH-2R [5]): 55 nM
IC50 (human MCH-1R [6]): 5 nM

XCMLGRVYRPC (N-terminal acetyl; D-Asn at position 6; C-terminal amide; disulfide cycle) [SEQ. ID. NO. 10 (Ac-D-Asn^6 analog of Ac-hMCH(6-16)-NH2)]
Activation %, aequorin bioluminescence (human MCH-1R [1]): 113%
EC50, aequorin bioluminescence (human MCH-1R [1]): 260 nM
Activation %, aequorin bioluminescence (human MCH-2R [7]): 42%

XCMLGRVYRPC (N-terminal acetyl; D-Ser at position 6; C-terminal amide; disulfide cycle) [SEQ. ID. NO. 11 (Ac-D-Ser^6 analog of Ac-hMCH(6-16)-NH2)]
Activation %, aequorin bioluminescence (human MCH-1R [1]): 114%
EC50, aequorin bioluminescence (human MCH-1R [1]): 160 nM
Activation %, aequorin bioluminescence (human MCH-2R [7]): 39%

XCMLGRVYRPC (D-Arg at position 6, no acetyl; C-terminal amide; disulfide cycle) [SEQ. ID. NO. 4 (D-Arg^6 analog lacking an Ac group)]
Activation %, aequorin bioluminescence (human MCH-1R [1]): 130%
EC50, aequorin bioluminescence (human MCH-1R [1]): 107 nM
EC50, aequorin bioluminescence (human MCH-2R [7]): 55 nM
IC50 (human MCH-2R [8]): 47 nM
IC50 (human MCH-1R [6]): 0.35 nM

B3: SEQ. ID. NO. 7 (Ac-D-Nle^6 analog of Ac-hMCH(6-16)-NH2) (peptide)
peptide: XCMLGRVYRPC
modifications: N-terminal acetyl; D-Nle (D-norleucine) at position 6; C-terminal amide; disulfide cycle
Activation %, aequorin bioluminescence (human MCH-1R [1]): 115%
Activation %, aequorin bioluminescence (human MCH-2R [7]): 69%
IC50 (human MCH-2R [8]): 1460 nM

XCMLGRVYRPC (N-terminal acetyl; D-Pro at position 6; C-terminal amide; disulfide cycle) [SEQ. ID. NO. 8 (Ac-D-Pro^6 analog of Ac-hMCH(6-16)-NH2)]
Activation %, aequorin bioluminescence (human MCH-1R [1]): 120%

B4: SEQ. ID. NO. 12 (Ac-D-Glu^6 analog of Ac-hMCH(6-16)-NH2) (peptide)
peptide: XCMLGRVYRPC
modifications: not fully specified; N-terminal acetyl; D-Glu at position 6; C-terminal amide; disulfide cycle
Activation %, aequorin bioluminescence (human MCH-1R [1]): 100%
Activation %, aequorin bioluminescence (human MCH-2R [7]): 20%
